Test results: PMC12311110, “Mapping of endosomal proximity proteomes reveals Retromer as a hub for RAB GTPase regulation” (Nature Communications, 2025)

Biological target: mVps29 (mouse (printed as mVps29), UniProt Q9QZ88 1-182)
Assay: crystal structure; hanging drop, 20 °C; 0.1 M Tris-HCl pH 8.5, 0.2 M MgCl2, 30% PEG4000; 3-fold molar excess of peptide over mVps29
Conditions: both partners purified

B1: human DENND4C peptide 1189-1206 (peptide)
peptide: AKVVQREDVETGLDPLSL
notes: also called hDENND4C_(1189-1206); DENND4C PL motif-containing peptide; source: synthetic peptide
- binding result: binds
